Legend:
kmt5a_human KMT5A [1] = molecular target: T1, kmt5a_human KMT5A (UniProt Q9NQR1)
T1 sequence: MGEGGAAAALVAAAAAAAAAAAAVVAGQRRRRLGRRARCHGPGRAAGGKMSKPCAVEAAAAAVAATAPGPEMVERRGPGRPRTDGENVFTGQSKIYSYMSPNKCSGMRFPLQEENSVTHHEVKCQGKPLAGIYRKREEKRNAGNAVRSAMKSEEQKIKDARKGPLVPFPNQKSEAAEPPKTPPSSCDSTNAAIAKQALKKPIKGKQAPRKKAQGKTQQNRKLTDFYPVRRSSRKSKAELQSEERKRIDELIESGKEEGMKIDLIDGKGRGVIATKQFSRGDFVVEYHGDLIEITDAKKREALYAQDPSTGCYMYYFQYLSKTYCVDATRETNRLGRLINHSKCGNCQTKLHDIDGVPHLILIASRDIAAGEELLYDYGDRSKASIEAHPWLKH

kmt5a_human KMT5A [2] = molecular target: T1, kmt5a_human KMT5A; remark: listed apart in the source

Substance | effect of a mutation on the interaction (kmt5a_human KMT5A [1]) | effect of a mutation on the interaction (kmt5a_human KMT5A [2])
Histone H4 (Homo sapiens) (from UniProt P62805) H19Q | decreasing interaction | 
Histone H4 (Homo sapiens) (from UniProt P62805) H19Y | decreasing interaction | 
Histone H4 (Homo sapiens) (from UniProt P62805) H19A |  | decreasing interaction

Source: IntAct's records for PubMed 15933069
